Experiments:
[1] = biological target: N-methyl-D-aspartate receptor on primary cultured mouse cortical neurons (mouse) (UniProt P35438); experiment: cell-based or functional assay
fibrin = experiment: binding of tPA variants to a solid-phase fibrin surface on PVC plates (3 independent experiments, 12 doses)

rat wild type tPA (Rattus norvegicus), 6xHis-tagged (from UniProt P19637 33-559) (enzyme)
neuronal death (LDH release, cortical neurons, 50 uM NMDA, 0.3 uM tPA) [1]: 71%
potentiation of NMDAR-mediated excitotoxicity (LDH release, cortical neurons, 50 uM NMDA, 0.3 uM tPA) [1]: 39%

rat tPA with complete deletion of its K2 domain (deletion of the amino acids 181 to 262), 6xHis-tagged (from UniProt P19637 33-212; P19637 295-559) (enzyme)
Kd (fibrin): 0.82 nM

Source: patent US20140212406A1
